The text below walks through data of patent publication US11278600B2, “Human alpha-galactosidase variants” (Codexis, Inc., priority 2014, dated 2022).

Common to all, as to format: biochemical
The nature of data set [1]: HTP-analysis of yeast culture supernatants, no challenge (MUGal hydrolysis). The settings on record: activity of the variant/activity of Rd4BB (SEQ ID NO: 15). The procedure, abridged: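 GLA variants expressed in yeast INVSc1, secreted into SD-Ura broth over 66-84 h at 30° C; clarified supernatants tested without challenge. Supernatant mixed with McIlvaine buffer pH 4.8 and 2 mM MUGal (citrate/KCl, pH 4.6), 37° C for 30-180 min, carbonate-quenched, fluorescence Ex 355/Em 448 nm.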

Data set [2] in a line: HTP-analysis of supernatants pretreated with acid (MUGal hydrolysis). The settings on record: activity of the variant/activity of Rd4BB (SEQ ID NO: 15); challenge at pH 3.7. In a few lines:
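Supernatants from INVSc1 yeast secreting GLA variants were challenged at 37° C. for 1-3 h in McIlvaine buffer at pH 3.3-4.3. Residual activity was then measured on 4 mM MUGal substrate stock at pH 4.8 with citrate buffer pH 4.3, over 30-180 min at 37° C. Reactions were quenched with sodium carbonate and read by fluorescence (Ex 355/Em 448 nm).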

Data set [3] can be described thus: HTP-analysis of supernatants pretreated with base (MUGal hydrolysis). The settings on record: activity of the variant/activity of Rd4BB (SEQ ID NO: 15); challenge at pH 9.65. The procedure, abridged: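 Supernatants from INVSc1 yeast expressing GLA variants (SD-Ura, 66-84 h, 30° C) were mixed with McIlvaine buffer pH 7.0-8.2 or 200 mM sodium bicarbonate pH 9.1-9.7 and held 1-18 h at 37° C. Residual activity was then measured on MUGal at pH 4.8/4.3, 37° C, 30-180 min, by fluorescence (Ex 355/Em 448 nm).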

B1: 374 (protein)
chain: LDNGLARTPTMGWLHWERFMCNLDCQEEPDSCISEKLFMEMAEMMVSEGWKDAGYEYLCIDDCWMAPQRDSEGRLQADPQRFPHGIRQLANYVHSKGLKLGIYADVGNKTCAGFPGSFGYYDIDAQTFADWGVDLLKFDGCYCDSLENLADGYKHMSLALNRTGRSIVYSCEWPLYMWPFQKPNYTEIRQYCNHWRNFADIDDSWKSIKSILDWTSRNQERIVDVAGPGGWNDPDMLVIGNFGLSWDQQVTQMALWAIMAAPLFMSNDLRHISPQAKALLQDKDVIAINQDPLGKQGYQLRKGDNFEVWERPLSGDAWAVAIINRQEIGGPRSYTIPVASLGKGVACNPACFITQLLPVKRQLGFYNWTSRLKSHINPTGTVLLQLENTMQMSLKDLL
modifications: Synthetic Polypeptide sequence of Variant No. 374 of mature Human GLA
Regarding B1, the “Relative Activity of GLA Variants After No Challenge (NC)” value in data set [1] was “+ (0.5 to 1.5 relative activity over Rd4BB (SEQ ID NO: 15))”. Moreover, the “Relative Activity of GLA Variants After Challenge at pH 3.7” value (from here on “Relative Activity … at pH 3.7”) in data set [2] is reported as “+ (0.5 to 1.5 relative activity over Rd4BB (SEQ ID NO: 15))”. Also, the “Relative Activity of GLA Variants After Challenge at pH 9.65” value (shortened to “Relative Activity … at pH 9.65”) in data set [3] was “+ (0.5 to 1.5 relative activity over Rd4BB (SEQ ID NO: 15))”.

B2: 376 (protein)
chain: LDNGLARTPTMGWLHWERFMCNLDCQEEPDSCISEKLFMEPAERMVSEGWKDAGYEYLCIDDCWMAPQRDSEGRLQADPQRFPHGIRQLANYVHSKGLKLGIYADVGNKTCAGFPGSFGYYDIDAQTFADWGVDLLKFDGCYCDSLENLADGYKHMSLALNRTGRSIVYSCEWPLYMWPFQKPNYTEIRQYCNHWRNFADIDDSWKSIKSILDWTSRNQERIVDVAGPGGWNDPDMLVIGNFGLSWDQQVTQMALWAIMAAPLFMSNDLRHISPQAKALLQDKDVIAINQDPLGKQGYQLRKGDNFEVWERPLSGDAWAVAIINRQEIGGPRSYTIPVASLGKGVACNPACFITQLLPVKRQLGFYNWTSRLKSHINPTGTVLLQLENTMQMSLKDLL
modifications: Synthetic Polypeptide sequence of Variant No. 376 of mature Human GLA
Turning to B2, the “Relative Activity of GLA Variants After No Challenge (NC)” value in data set [1] is reported as “− (<0.5 relative activity over Rd4BB (SEQ ID NO: 15))”. Also, the “Relative Activity … at pH 3.7” value in data set [2] is reported as “− (<0.5 relative activity over Rd4BB (SEQ ID NO: 15))”. The “Relative Activity … at pH 9.65” value in data set [3] is on record as “− (<0.5 relative activity over Rd4BB (SEQ ID NO: 15))”.

B3: 381 (protein)
chain: LDNGLARTPTMGWLHWERFMCNLDCQEEPDSCISEKLFMEMAERMVSEGWKDAGYEYLCIDDCWMAPQRDSEGRLQADPQRFPHGIRQLANSVHSKGLKLGIYADVGNKTCAGFPGSFGYYDIDAQTFADWGVDLLKFDGCYCDSLENLADGYKHMSLALNRTGRSIVYSCEWPLYMWPFQKPNYTEIRQYCNHWRNFADIDDSWKSIKSILDWTSRNQERIVDVAGPGGWNDPDMLVIGNFGLSWDQQVTQMALWAIMAAPLFMSNDLRHISPQAKALLQDKDVIAINQDPLGKQGYQLRKGDNFEVWERPLSGDAWAVAIINRQEIGGPRSYTIPVASLGKGVACNPACFITQLLPVKRQLGFYNWTSRLKSHINPTGTVLLQLENTMQMSLKDLL
modifications: Synthetic Polypeptide sequence of Variant No. 381 of mature Human GLA
B3: the “Relative Activity of GLA Variants After No Challenge (NC)” value in data set [1] is “+ (0.5 to 1.5 relative activity over Rd4BB (SEQ ID NO: 15))”. The “Relative Activity … at pH 3.7” value in data set [2] is recorded as “+ (0.5 to 1.5 relative activity over Rd4BB (SEQ ID NO: 15))”. In addition, the “Relative Activity … at pH 9.65” value in data set [3] is “− (<0.5 relative activity over Rd4BB (SEQ ID NO: 15))”.

B4: 378 (protein)
chain: LDNGLARTPTMGWLHWERFMCNLDCQEEPDSCISEKLFMEMAETMVSEGWKDAGYEYLCIDDCWMAPQRDSEGRLQADPQRFPHGIRQLANYVHSKGLKLGIYADVGNKTCAGFPGSFGYYDIDAQTFADWGVDLLKFDGCYCDSLENLADGYKHMSLALNRTGRSIVYSCEWPLYMWPFQKPNYTEIRQYCNHWRNFADIDDSWKSIKSILDWTSRNQERIVDVAGPGGWNDPDMLVIGNFGLSWDQQVTQMALWAIMAAPLFMSNDLRHISPQAKALLQDKDVIAINQDPLGKQGYQLRKGDNFEVWERPLSGDAWAVAIINRQEIGGPRSYTIPVASLGKGVACNPACFITQLLPVKRQLGFYNWTSRLKSHINPTGTVLLQLENTMQMSLKDLL
modifications: Synthetic Polypeptide sequence of Variant No. 378 of mature Human GLA
On to B4, for which the “Relative Activity of GLA Variants After No Challenge (NC)” value in data set [1] is recorded as “+ (0.5 to 1.5 relative activity over Rd4BB (SEQ ID NO: 15))”. The “Relative Activity … at pH 3.7” value in data set [2] is given as “− (<0.5 relative activity over Rd4BB (SEQ ID NO: 15))”. In addition, the “Relative Activity … at pH 9.65” value in data set [3] is listed as “+ (0.5 to 1.5 relative activity over Rd4BB (SEQ ID NO: 15))”.

B5: 379 (protein)
chain: LDNGLARTPTMGWLHWERFMCNLDCQEEPDSCISEKLFMEMAERMVTEGWKDAGYEYLCIDDCWMAPQRDSEGRLQADPQRFPHGIRQLANYVHSKGLKLGIYADVGNKTCAGFPGSFGYYDIDAQTFADWGVDLLKFDGCYCDSLENLADGYKHMSLALNRTGRSIVYSCEWPLYMWPFQKPNYTEIRQYCNHWRNFADIDDSWKSIKSILDWTSRNQERIVDVAGPGGWNDPDMLVIGNFGLSWDQQVTQMALWAIMAAPLFMSNDLRHISPQAKALLQDKDVIAINQDPLGKQGYQLRKGDNFEVWERPLSGDAWAVAIINRQEIGGPRSYTIPVASLGKGVACNPACFITQLLPVKRQLGFYNWTSRLKSHINPTGTVLLQLENTMQMSLKDLL
modifications: Synthetic Polypeptide sequence of Variant No. 379 of mature Human GLA
In the case of B5, in data set [1], the “Relative Activity of GLA Variants After No Challenge (NC)” value is reported as “+ (0.5 to 1.5 relative activity over Rd4BB (SEQ ID NO: 15))”. The “Relative Activity … at pH 3.7” value in data set [2] was “++ (>1.5 to 2.5 relative activity over Rd4BB (SEQ ID NO: 15))”. Further, the “Relative Activity … at pH 9.65” value in data set [3] is given as “+ (0.5 to 1.5 relative activity over Rd4BB (SEQ ID NO: 15))”.

B6: 377 (protein)
chain: LDNGLARTPTMGWLHWERFMCNLDCQEEPDSCISEKLFTEMAERMVSEGWKDAGYEYLCIDDCWMAPQRDSEGRLQADPQRFPHGIRQLANYVHSKGLKLGIYADVGNKTCAGFPGSFGYYDIDAQTFADWGVDLLKFDGCYCDSLENLADGYKHMSLALNRTGRSIVYSCEWPLYMWPFQKPNYTEIRQYCNHWRNFADIDDSWKSIKSILDWTSRNQERIVDVAGPGGWNDPDMLVIGNFGLSWDQQVTQMALWAIMAAPLFMSNDLRHISPQAKALLQDKDVIAINQDPLGKQGYQLRKGDNFEVWERPLSGDAWAVAIINRQEIGGPRSYTIPVASLGKGVACNPACFITQLLPVKRQLGFYNWTSRLKSHINPTGTVLLQLENTMQMSLKDLL
modifications: Synthetic Polypeptide sequence of Variant No. 377 of mature Human GLA
As for B6, the “Relative Activity of GLA Variants After No Challenge (NC)” value in data set [1] is “+ (0.5 to 1.5 relative activity over Rd4BB (SEQ ID NO: 15))”. For the same molecule, the “Relative Activity … at pH 3.7” value in data set [2] is “++ (>1.5 to 2.5 relative activity over Rd4BB (SEQ ID NO: 15))”. Also, the “Relative Activity … at pH 9.65” value in data set [3] is on record as “− (<0.5 relative activity over Rd4BB (SEQ ID NO: 15))”.

B7: 380 (protein)
chain: LDNGLARTPTMGWLHWERFMCNLDCQEEPDSCISEKLFMEMAERMVSEGWKDAGYEYLCIDDCWMAPQRDSEGRLQADPQRFPHGIRQLANKVHSKGLKLGIYADVGNKTCAGFPGSFGYYDIDAQTFADWGVDLLKFDGCYCDSLENLADGYKHMSLALNRTGRSIVYSCEWPLYMWPFQKPNYTEIRQYCNHWRNFADIDDSWKSIKSILDWTSRNQERIVDVAGPGGWNDPDMLVIGNFGLSWDQQVTQMALWAIMAAPLFMSNDLRHISPQAKALLQDKDVIAINQDPLGKQGYQLRKGDNFEVWERPLSGDAWAVAIINRQEIGGPRSYTIPVASLGKGVACNPACFITQLLPVKRQLGFYNWTSRLKSHINPTGTVLLQLENTMQMSLKDLL
modifications: Synthetic Polypeptide sequence of Variant No. 380 of mature Human GLA
B7: the “Relative Activity of GLA Variants After No Challenge (NC)” value in data set [1] is reported as “+ (0.5 to 1.5 relative activity over Rd4BB (SEQ ID NO: 15))”. For the same molecule, the “Relative Activity … at pH 3.7” value in data set [2] was “+ (0.5 to 1.5 relative activity over Rd4BB (SEQ ID NO: 15))”. Besides, the “Relative Activity … at pH 9.65” value in data set [3] was “− (<0.5 relative activity over Rd4BB (SEQ ID NO: 15))”.

B8: 375 (protein)
chain: LDNGLARTPTMGWLHWERFMCNLDCQEEPDSCISEKLFMEMAERMVIEGWKDAGYEYLCIDDCWMAPQRDSEGRLQADPQRFPHGIRQLANYVHSKGLKLGIYADVGNKTCAGFPGSFGYYDIDAQTFADWGVDLLKFDGCYCDSLENLADGYKHMSLALNRTGRSIVYSCEWPLYMWPFQKPNYTEIRQYCNHWRNFADIDDSWKSIKSILDWTSRNQERIVDVAGPGGWNDPDMLVIGNFGLSWDQQVTQMALWAIMAAPLFMSNDLRHISPQAKALLQDKDVIAINQDPLGKQGYQLRKGDNFEVWERPLSGDAWAVAIINRQEIGGPRSYTIPVASLGKGVACNPACFITQLLPVKRQLGFYNWTSRLKSHINPTGTVLLQLENTMQMSLKDLL
modifications: Synthetic Polypeptide sequence of Variant No. 375 of mature Human GLA
For the molecule B8, the “Relative Activity of GLA Variants After No Challenge (NC)” value in data set [1] was “+ (0.5 to 1.5 relative activity over Rd4BB (SEQ ID NO: 15))”. Besides, the “Relative Activity … at pH 3.7” value in data set [2] was “+ (0.5 to 1.5 relative activity over Rd4BB (SEQ ID NO: 15))”. For the same molecule, in data set [3], the “Relative Activity … at pH 9.65” value is “+ (0.5 to 1.5 relative activity over Rd4BB (SEQ ID NO: 15))”.
